In patent US20260151519A1 (AKTIS ONCOLOGY, published 2026):
Bridges are numbered along the chain shown (N, C = ends). Primed or numbered codes have the meaning given here. The star is where a group is joined. DOTA = O=C(O)CN1CCN(CC(=O)O)CCN(CC(=O)*)CCN(CC(=O)O)CC1; PEG4″ = 4(ethylene glycol)

Legend:
Murine Nectin-4 = target: T1, Murine Nectin-4 (mouse, UniProt Q8R007 31-347, limits assumed); assay: SPR, Biacore, 1:1 model, 25 C
T1 construct: Protein immobilised on the SPR chip; also called mouse Nectin-4
T1 sequence: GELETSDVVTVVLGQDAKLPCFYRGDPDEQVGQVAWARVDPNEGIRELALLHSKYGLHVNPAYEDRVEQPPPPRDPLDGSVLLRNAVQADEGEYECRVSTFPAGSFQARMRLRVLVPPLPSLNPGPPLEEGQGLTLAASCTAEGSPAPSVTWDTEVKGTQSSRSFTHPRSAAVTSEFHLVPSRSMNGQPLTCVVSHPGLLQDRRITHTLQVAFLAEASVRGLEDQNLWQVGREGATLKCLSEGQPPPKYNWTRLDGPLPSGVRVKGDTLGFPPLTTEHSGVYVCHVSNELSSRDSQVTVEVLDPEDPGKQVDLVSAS
Protocol: (§1) Peptide binding affinity to the target protein was measured by SPR using an SPR machine, such as a Biacore T200 instrument. The target protein was covalently coupled to a Biacore chip surface using free amine-coupling chemistry (NHS/EDC) and all uncoupled sites were blocked with ethanolamine. Free peptides were flowed over the target protein surface in increasing concentrations to measure association (Kₐ, 1/Ms⁻¹)) and dissociation (Kd, s⁻¹) to calculate the dissociation equilibrium constant (KD) using an appropriate binding model (see, e.g., Nikolas Stroth, J Biol Methods. 2016; 3 (1)).
(§2) In FIGS. 1A, 1B, 2A, and 2B, lines on graphs are labeled from top to bottom, beginning with letter “a,” and the corresponding concentration is noted to the right of the figure.

Human Nectin-4 [1] = target: T2, Human Nectin-4 (human, UniProt Q96NY8 32-349, limits assumed); assay: SPR, Biacore, 1:1 model, 25 C
T2 construct: Protein immobilised on the SPR chip; also called target protein
T2 sequence: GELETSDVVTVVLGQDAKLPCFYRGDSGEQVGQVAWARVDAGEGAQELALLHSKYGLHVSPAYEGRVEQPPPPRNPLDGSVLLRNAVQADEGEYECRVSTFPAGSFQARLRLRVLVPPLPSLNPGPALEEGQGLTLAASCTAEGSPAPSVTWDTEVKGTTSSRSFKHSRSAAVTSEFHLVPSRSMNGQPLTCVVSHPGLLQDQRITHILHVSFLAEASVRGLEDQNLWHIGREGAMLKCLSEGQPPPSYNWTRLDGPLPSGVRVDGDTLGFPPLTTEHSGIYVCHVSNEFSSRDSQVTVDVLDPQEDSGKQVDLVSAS
Protocol: as §1, §2

Human Nectin-4 [2] = target: T2, Human Nectin-4; assay: Table 2B (DELFIA or SPR)

Ac-CEYDEEFFAGLKRLRGGDICYYIKKKFDKVPDLCIEEILDKLGC-OH (designed binder, disulfide 1-34, 20-44) [C9]
Kd (Murine Nectin-4): 7.83 nM | koff (Murine Nectin-4): 0.0213 s⁻¹ | Kd (Human Nectin-4 [1]): 7.5 nM | koff (Human Nectin-4 [1]): 0.0227 s⁻¹ | Kd (Human Nectin-4 [2]): 7.5 nM

{DOTA-PEG4″}-CEYDEEFFAGLKRLRGGDICYYIKKKFDKVPDLCIEEILDKLGC-OH (designed binder, disulfide 1-34, 20-44; also: 138La complex of DOTA) [C91]
Kd (Murine Nectin-4): 24.6 nM | koff (Murine Nectin-4): 0.0282 s⁻¹ | Kd (Human Nectin-4 [1]): 17.9 nM | koff (Human Nectin-4 [1]): 0.0297 s⁻¹

{DOTA-PEG4″}-CEYDEEFFAGLKRLRGGDICYYIKKKFDKVPDLCIEEILDKLGC-OH (designed binder, disulfide 1-34, 20-44) [C12]
Kd (Murine Nectin-4): 2.94 nM | koff (Murine Nectin-4): 0.0262 s⁻¹ | koff (Human Nectin-4 [1]): 0.017 s⁻¹ | Kd (Human Nectin-4 [2]): 10.5 nM
